From patent publication US20190175467A1, “COMPOSITION FOR THE TREATMENT OF ACNE” (ROTTAPHARM LTD., priority 2015, published 2019)

Experiments:
[1] = system: Staphylococcus aureus ATCC 25923; assay: Determination of MIC and MBC, Staphylococcus aureus; assay type: cell-based
Procedure: (§1) A series of test tubes was prepared containing the culture broth inoculated with the test micro-organism and the substance to be tested was introduced at decreasing scalar concentrations. […] The test tubes in which the microbial population developed were then determined by observing visually the turbidity that is indicative of growth. Test tubes in which the substance is present at a sufficient concentration to inhibit growth remain clear. When the nature itself of the sample prevents visual reading or if it is wished to determine whether the lack of development is due to a microbiostatic or microbicidal action, transfers are made to appropriate agar media for confirmation. The concentration of sample at which growth of the micro-organisms is inhibited is considered to be the Minimum Inhibitory Concentration (MIC), while that at which viable micro-organisms are no longer present is considered to be the Minimum Bactericidal Concentration (MBC) The antibacterial activity of these substances against Staphylococcus aureus acnes ATCC 25923 and Staphylococcus epidermidis ATCC 12228 was tested according to the above-described method.

[2] = system: Staphylococcus epidermidis ATCC 12228; assay: Determination of MIC and MBC, Staphylococcus epidermidis; assay type: cell-based
Procedure: as §1

B1: Lactoferrin (protein, UniProt P02788 20-710, looked up)
Lactotransferrin: GRRRSVQWCAVSQPEATKCFQWQRNMRKVRGPPVSCIKRDSPIQCIQAIAENRADAVTLDGGFIYEAGLAPYKLRPVAAEVYGTERQPRTHYYAVAVVKKGGSFQLNELQGLKSCHTGLRRTAGWNVPIGTLRPFLNWTGPPEPIEAAVARFFSASCVPGADKGQFPNLCRLCAGTGENKCAFSSQEPYFSYSGAFKCLRDGAGDVAFIRESTVFEDLSDEAERDEYELLCPDNTRKPVDKFKDCHLARVPSHAVVARSVNGKEDAIWNLLRQAQEKFGKDKSPKFQLFGSPSGQKDLLFKDSAIGFSRVPPRIDSGLYLGSGYFTAIQNLRKSEEEVAARRARVVWCAVGEQELRKCNQWSGLSEGSVTCSSASTTEDCIALVLKGEADAMSLDGGYVYTAGKCGLVPVLAENYKSQQSSDPDPNCVDRPVEGYLAVAVVRRSDTSLTWNSVKGKKSCHTAVDRTAGWNIPMGLLFNQTGSCKFDEYFSQSCAPGSDPRSNLCALCIGDEQGENKCVPNSNERYYGYTGAFRCLAENAGDVAFVKDVTVLQNTDGNNNEAWAKDLKLADFALLCLDGKRKPVTEARSCHLAMAPNHAVVSRMDKVERLKQVLLHQQAKFGRNGSDCPDKFCLFQSETKNLLFNDNTECLARLHGKTTYEKYLGPQYVAGITNLKKCSTSPLLEACEFLRK
MIC [1]: >20 mg/mL | MIC [2]: >20 mg/mL
